{
  "source": "paper PMC9712689",
  "about": "(Communications Biology, 2022)",
  "binders": {"B1": {"name": "RlpA-Δ32, fluorescently labeled (domain or fragment)", "chain": "PQQPARQAGISGPGDYSRPHRDGAPWWDVDVSRIPDAVPMPHNGSVKANPYTVLGKTYYPMNDARAYRMVGTASWYGTKFHGQATANGETYDLYGMTAAHKTLPLPSYVRVTNLDNGKSVIVRVNDRGPFYSDRVIDLSFAAAKKLGYAETGTARVKVEGIDPVQWWAQRGRPAPMVLAQPKQAVAQAAPAAAQTQAVAMAQPIETYTPPPAQHAAAVLPVQIDSKKNASLPADGLYLQVGAFANPDAAELLKAKLSGVTAAPVFISSVVRNQQILHRVRLGPIGSADEVSRTQDSIRVANLGQPTLVRPD", "modifications": "amine reactive RED-NHS dye", "notes": "source: E. coli BL21-star (DE3), purified (Ni-NTA), labelled with RED-NHS dye"}},
  "assay_in_all_cases": "MST",
  "conditions_in_all_cases": "both partners purified",
  "key": {"[1]": {"target": "T1, MltA (P. aeruginosa PAO1, UniProt Q9I4B6 1-385)", "T1 sequence (looked up)": "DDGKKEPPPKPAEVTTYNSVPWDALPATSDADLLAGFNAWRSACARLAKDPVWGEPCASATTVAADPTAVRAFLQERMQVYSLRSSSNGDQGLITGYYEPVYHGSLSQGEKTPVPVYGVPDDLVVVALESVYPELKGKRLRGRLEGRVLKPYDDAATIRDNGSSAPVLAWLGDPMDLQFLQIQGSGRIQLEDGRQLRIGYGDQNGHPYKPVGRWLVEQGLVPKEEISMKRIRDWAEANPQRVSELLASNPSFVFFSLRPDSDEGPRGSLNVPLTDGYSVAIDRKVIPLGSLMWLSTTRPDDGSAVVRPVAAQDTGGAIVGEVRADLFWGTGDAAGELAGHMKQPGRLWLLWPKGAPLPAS"}, "[2]": {"target": "PBP1a (P. aeruginosa PAO1, UniProt Q07806 27-822)", "sequence (Q07806 27-822)": "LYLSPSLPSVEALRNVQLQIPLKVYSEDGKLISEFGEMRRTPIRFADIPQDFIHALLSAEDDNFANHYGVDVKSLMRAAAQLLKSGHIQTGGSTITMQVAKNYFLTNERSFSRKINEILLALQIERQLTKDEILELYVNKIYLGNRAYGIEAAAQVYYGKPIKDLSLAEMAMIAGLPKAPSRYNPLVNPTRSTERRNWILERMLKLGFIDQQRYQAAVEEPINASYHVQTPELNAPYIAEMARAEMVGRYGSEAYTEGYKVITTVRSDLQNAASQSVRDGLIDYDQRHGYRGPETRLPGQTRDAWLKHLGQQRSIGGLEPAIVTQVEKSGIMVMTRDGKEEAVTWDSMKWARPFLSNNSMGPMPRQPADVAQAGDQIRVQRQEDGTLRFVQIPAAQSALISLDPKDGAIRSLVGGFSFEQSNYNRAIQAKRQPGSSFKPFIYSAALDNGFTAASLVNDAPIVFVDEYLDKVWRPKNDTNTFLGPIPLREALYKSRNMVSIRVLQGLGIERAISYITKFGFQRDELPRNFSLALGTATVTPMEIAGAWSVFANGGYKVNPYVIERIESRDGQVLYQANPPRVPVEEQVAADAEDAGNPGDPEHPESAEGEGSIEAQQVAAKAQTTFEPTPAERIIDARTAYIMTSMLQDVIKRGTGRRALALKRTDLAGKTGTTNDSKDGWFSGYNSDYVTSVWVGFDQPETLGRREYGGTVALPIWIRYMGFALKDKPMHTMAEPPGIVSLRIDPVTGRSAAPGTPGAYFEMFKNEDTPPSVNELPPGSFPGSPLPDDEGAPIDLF"}, "[3]": {"target": "T2, MltB (P. aeruginosa PAO1, UniProt Q9HVX3 1-367)", "T2 sequence (looked up)": "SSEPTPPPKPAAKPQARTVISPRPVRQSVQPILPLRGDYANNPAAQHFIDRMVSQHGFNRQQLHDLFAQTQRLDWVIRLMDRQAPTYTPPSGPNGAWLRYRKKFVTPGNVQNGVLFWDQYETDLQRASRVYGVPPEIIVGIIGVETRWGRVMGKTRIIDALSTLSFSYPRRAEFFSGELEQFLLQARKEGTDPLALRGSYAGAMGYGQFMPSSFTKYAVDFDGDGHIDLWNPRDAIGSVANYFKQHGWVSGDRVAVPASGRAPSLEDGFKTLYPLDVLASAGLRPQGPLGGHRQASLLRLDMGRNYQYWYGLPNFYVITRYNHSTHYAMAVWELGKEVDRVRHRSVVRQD"}, "[4]": {"target": "MltF (P. aeruginosa PAO1, UniProt Q9HXN1 33-490)", "sequence (Q9HXN1 33-490)": "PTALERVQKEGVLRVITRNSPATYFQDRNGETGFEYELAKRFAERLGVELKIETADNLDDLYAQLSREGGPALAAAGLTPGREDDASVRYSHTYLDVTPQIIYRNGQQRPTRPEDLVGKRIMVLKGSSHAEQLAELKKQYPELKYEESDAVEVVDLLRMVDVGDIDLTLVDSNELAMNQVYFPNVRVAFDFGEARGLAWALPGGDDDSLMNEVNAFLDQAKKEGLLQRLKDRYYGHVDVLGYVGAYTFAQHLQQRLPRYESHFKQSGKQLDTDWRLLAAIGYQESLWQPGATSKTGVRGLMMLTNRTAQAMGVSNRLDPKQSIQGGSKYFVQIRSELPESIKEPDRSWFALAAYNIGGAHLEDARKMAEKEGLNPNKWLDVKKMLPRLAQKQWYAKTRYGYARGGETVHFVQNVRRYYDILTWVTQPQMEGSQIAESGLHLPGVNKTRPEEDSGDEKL"}, "[5]": {"target": "T3, SltB2 (P. aeruginosa PAO1, UniProt Q9I4G6 1-398)", "T3 sequence (looked up)": "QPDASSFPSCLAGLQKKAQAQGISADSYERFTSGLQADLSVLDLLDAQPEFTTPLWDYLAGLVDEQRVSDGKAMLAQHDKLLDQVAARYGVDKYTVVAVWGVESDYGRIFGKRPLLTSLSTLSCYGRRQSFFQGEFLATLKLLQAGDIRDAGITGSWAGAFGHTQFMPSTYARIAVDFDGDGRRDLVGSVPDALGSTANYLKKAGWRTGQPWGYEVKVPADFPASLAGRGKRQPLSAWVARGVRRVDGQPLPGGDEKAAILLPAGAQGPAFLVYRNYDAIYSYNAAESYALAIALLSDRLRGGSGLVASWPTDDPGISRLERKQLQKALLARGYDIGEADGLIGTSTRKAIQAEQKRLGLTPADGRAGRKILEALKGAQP"}, "[6]": {"target": "T4, MltD (P. aeruginosa PAO1, UniProt Q9I2T2 1-534)", "T4 sequence (looked up)": "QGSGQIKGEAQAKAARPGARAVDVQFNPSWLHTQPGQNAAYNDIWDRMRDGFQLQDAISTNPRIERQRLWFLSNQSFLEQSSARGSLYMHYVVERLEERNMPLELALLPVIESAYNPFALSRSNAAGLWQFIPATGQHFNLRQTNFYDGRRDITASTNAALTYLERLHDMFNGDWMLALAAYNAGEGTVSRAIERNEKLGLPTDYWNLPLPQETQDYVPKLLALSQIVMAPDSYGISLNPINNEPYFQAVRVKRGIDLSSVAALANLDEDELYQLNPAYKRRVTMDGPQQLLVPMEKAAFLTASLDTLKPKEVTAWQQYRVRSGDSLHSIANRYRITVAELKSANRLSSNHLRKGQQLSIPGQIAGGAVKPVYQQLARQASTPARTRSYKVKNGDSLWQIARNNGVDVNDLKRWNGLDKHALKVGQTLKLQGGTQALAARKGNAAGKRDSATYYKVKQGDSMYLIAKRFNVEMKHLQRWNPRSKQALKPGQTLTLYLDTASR"}, "[7]": {"target": "T5, PBP4 (P. aeruginosa PAO1, UniProt Q9HZG1 1-476)", "T5 sequence (looked up)": "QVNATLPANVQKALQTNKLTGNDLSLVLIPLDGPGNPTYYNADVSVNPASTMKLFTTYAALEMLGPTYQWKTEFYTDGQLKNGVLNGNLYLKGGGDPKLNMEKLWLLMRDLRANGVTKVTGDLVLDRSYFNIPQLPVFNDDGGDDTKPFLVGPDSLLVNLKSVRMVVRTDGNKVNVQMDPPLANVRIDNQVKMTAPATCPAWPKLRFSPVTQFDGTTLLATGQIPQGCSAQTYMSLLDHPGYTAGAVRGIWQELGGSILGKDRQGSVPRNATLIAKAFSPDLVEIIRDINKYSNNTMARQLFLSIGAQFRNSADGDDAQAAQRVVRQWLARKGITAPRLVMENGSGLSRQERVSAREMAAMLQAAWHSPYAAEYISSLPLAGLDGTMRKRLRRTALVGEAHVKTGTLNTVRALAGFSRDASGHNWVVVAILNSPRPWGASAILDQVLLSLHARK"}, "[8]": {"target": "T6, TypA (P. aeruginosa PAO1, UniProt Q9HU67 1-605)", "T6 sequence (looked up)": "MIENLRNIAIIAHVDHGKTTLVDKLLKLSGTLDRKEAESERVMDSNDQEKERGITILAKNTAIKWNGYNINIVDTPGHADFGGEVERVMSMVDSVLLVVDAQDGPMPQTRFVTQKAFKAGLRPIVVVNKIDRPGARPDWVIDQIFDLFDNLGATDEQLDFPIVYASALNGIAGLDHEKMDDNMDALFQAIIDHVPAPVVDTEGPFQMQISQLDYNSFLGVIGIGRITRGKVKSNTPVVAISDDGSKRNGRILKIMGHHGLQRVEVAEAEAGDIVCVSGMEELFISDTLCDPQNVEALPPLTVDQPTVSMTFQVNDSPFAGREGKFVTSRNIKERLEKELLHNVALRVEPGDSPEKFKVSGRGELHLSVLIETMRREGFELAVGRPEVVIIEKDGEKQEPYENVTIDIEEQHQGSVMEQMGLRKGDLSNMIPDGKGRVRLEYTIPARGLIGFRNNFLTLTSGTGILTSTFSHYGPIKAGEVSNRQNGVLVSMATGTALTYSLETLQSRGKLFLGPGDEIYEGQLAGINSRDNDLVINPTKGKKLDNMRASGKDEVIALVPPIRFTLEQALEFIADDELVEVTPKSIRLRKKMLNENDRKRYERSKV"}, "[9]": {"target": "T7, MltF2 (P. aeruginosa PAO1, UniProt Q9HZY1 1-476)", "T7 sequence (looked up)": "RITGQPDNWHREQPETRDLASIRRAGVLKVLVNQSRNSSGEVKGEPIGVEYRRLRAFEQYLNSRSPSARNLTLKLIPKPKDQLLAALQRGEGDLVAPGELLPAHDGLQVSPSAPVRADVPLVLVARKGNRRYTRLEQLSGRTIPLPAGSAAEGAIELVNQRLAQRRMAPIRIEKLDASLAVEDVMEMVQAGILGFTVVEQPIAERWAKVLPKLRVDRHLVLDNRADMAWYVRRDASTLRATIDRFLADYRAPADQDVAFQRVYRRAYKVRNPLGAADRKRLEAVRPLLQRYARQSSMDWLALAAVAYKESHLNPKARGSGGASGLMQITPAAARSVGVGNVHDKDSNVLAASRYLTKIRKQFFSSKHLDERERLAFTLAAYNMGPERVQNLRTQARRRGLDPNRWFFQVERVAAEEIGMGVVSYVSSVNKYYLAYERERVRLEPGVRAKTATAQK"}},
  "data": [
    {"binder": "B1", "values": [
      {"measurement": "Kd", "setting": "[1]", "result": 67, "unit": "nM"},
      {"measurement": "Kd", "setting": "[2]", "result": 92, "unit": "nM"},
      {"measurement": "Kd", "setting": "[3]", "result": 96, "unit": "nM"},
      {"measurement": "Kd", "setting": "[4]", "result": 101, "unit": "nM"},
      {"measurement": "Kd", "setting": "[5]", "result": 110, "unit": "nM"},
      {"measurement": "Kd", "setting": "[6]", "result": 240, "unit": "nM"},
      {"measurement": "Kd", "setting": "[7]", "result": 550, "unit": "nM"},
      {"measurement": "Kd", "setting": "[8]", "result": 1000, "unit": "nM"},
      {"measurement": "Kd", "setting": "[9]", "result": 12, "unit": "nM"}
    ]}
  ]
}
